In the supplement of paper PMC10567573:
± gives the standard deviation.

Test: protein stability index of a GFP-peptide fusion (GPS, HEK-293T) (PSI 1-6); higher = more stable
[1] = treatment: DMSO, c terminus: a fixed tail appended
[2] = treatment: MLN4924 1 uM, 8 h, c terminus: a fixed tail appended
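Further: 24-mer peptide tiles fused after GFP, lentivirally expressed, FACS-sorted into six equal bins by GFP/DsRed ratio, decoded by Illumina sequencing, PSI is the read-weighted mean bin number.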

| Sequence | protein stability index [1] | protein stability index [2] | protein stability index (treatment: DMSO, c terminus: native) | protein stability index (treatment: MLN4924 1 uM, 8 h, c terminus: native) |
| --- | --- | --- | --- | --- |
| IFPRLSFKDKSTYIESSTKVYDDM [CLPTM1] | 3.03 ± 0.23 | 3.15 ± 0.25 |  |  |
| QETPYLVKLPLPAERVTLADFKGV [DVL3] | 3.25 ± 0.3 | 3.49 ± 0.18 |  |  |
| ILSGLDDMSIGGNLSKTQNMERFG [CDC14A] | 3.24 ± 0.22 | 3.08 ± 0.26 |  |  |
| RAPAEKPRGARCSNGFPERDPPRP [GCH1] | 4.2 ± 0.3 | 4.43 ± 0.17 |  |  |
| IGDVHLAPFTDEQLYMEQFTKANF [CARM1] | 3 ± 0.2 | 3.03 ± 0.36 |  |  |
| QGEQLEVPERLLVVLDMEEGTLGY [SPSB2] | 2.86 ± 0.34 | 3.06 ± 0.24 |  |  |
| TIIEPAGESDNPLRFTSGLVVALD [INTS4] | 3.07 ± 0.37 | 3.24 ± 0.54 |  |  |
| DLLFIVDTMLEEVENKEKDSNMPH [CEP70] | 2.29 ± 0.24 | 2.76 ± 0.38 |  |  |
| GGSRGAPGLLMAVGQDLYCYSYS [DCAF4] |  |  | 3.16 ± 0.42 | 3.1 ± 1.5 |
| LEFSLLSYAFGKFPTVVWTWWIMF [SOAT1] | 2.98 ± 0.6 | 2.95 ± 0.59 |  |  |
| TEALGCDPPLSQDERTHRSDRPFK [ZNF8] | 5.39 ± 0.28 | 5.26 ± 0.16 |  |  |
| KKINSNQLENEQSQENSINPIQKE [SPANXN3] | 5.66 ± 0.29 | 5.58 ± 0.26 |  |  |
| AQDSIELLTTSGIQFKKHEEEGIE [CNOT7] | 5.46 ± 0.24 | 5.48 ± 0.34 |  |  |
| TSIQWKNHDQNNHNTDRSSHKDSM [EDNRA] | 5.05 ± 0.12 | 5.14 ± 0.2 |  |  |
| VLQMWHIVDKCTELLREGRASATT [ZBTB22] | 2.19 ± 0.29 | 2.25 ± 0.41 |  |  |
| VTAKTAPDVLRTKPAFIGKTNLDG [PTPRD] | 3.73 ± 0.4 | 4.06 ± 0.35 |  |  |
| LLKLEQNTCSVITTLKGHEGSVAC [WDFY1] | 2.84 ± 0.12 | 3.29 ± 0.32 |  |  |
| AAAGAVGLERRDWSPSPPATPEQG [SPDEF] | 5.09 ± 0.26 | 5.18 ± 0.17 |  |  |
| CWSFYGQGRKIAEVCCTSIVYATE [KCTD13] | 2.88 ± 0.6 | 2.97 ± 0.79 |  |  |
| GDWARLLEQMGALAVRGSRREREL [ZBED3] | 3.13 ± 0.51 | 2.89 ± 0.3 |  |  |

| Sequence | protein stability index [1] | protein stability index [2] | protein stability index (treatment: DMSO, c terminus: native) | protein stability index (treatment: MLN4924 1 uM, 8 h, c terminus: native) |
| --- | --- | --- | --- | --- |
| VKAATTEPTEVEEVVPALEPTETL [BCL2L13] | 5.65 ± 0.16 | 5.67 ± 0.14 |  |  |
| NCNWFCEGSFNGSEKETMQFLNDR [KRT33B] | 3.54 ± 0.35 | 3.61 ± 0.19 |  |  |
| LNKCFIKVPREKDEPGKGGFWRID [FOXJ1] | 2.98 ± 0.2 | 2.98 ± 0.096 |  |  |
| PPPLPNHKYNTTSTSYSPLASLPL [PLAGL1] | 3.29 ± 0.17 | 3.33 ± 0.091 |  |  |
| KKLEKYLQKLSALLMTADILAETG [ELOA2] | 2.74 ± 0.79 | 2.6 ± 0.055 |  |  |
| SSDSVGGFRYSERYDPEPKSKWDE [CLINT1] | 4.98 ± 0.29 | 4.95 ± 0.091 |  |  |
| YDYVREFKRSTGTWHHTKPLLPSD [GAN] | 3.2 ± 0.32 | 3.27 ± 0.21 |  |  |
| LRELGHAEHEITELTATFTKFDRD [PKD2L1] | 4.48 ± 0.28 | 4.59 ± 0.25 |  |  |
| RDSTARRPRPQGRSVSEPRDQHPQ [RTN2] | 5.305 ± 0.037 | 5.23 ± 0.098 |  |  |
| TLDLSDLEAEKLVMFQRRYYKPGL [SCD] | 2.54 ± 0.3 | 2.88 ± 0.35 |  |  |
| FLIVTVAWAAHTRLFQVVGKTDDT [TMEM175] | 2.86 ± 0.12 | 3.12 ± 0.23 |  |  |
| AGDVIFLLSRINKDWLEGTVRGAT [NCF4] | 3.21 ± 0.31 | 3.2 ± 0.4 |  |  |
| LIKAKSQARLEEQQRLAHLEDKLR [LRRC45] | 3.77 ± 0.25 | 3.96 ± 0.25 |  |  |
| SEHFKTTSQKVARKFWWKNVKMIV [VAMP8] | 2.69 ± 0.24 | 2.61 ± 0.71 |  |  |
| FHTMDELVEHYKKAPIFTSEHGEK [NCK2] | 3.88 ± 0.35 | 3.97 ± 0.27 |  |  |
| MNGGMSLVAFVLLNECVGTAYWAL [SLC22A15] | 3.91 ± 2 | 3.13 ± 0.38 |  |  |
| WGPLQDSLEHTLRVAIAHYQDDPD [TSPAN10] | 3.54 ± 0.28 | 3.69 ± 0.22 |  |  |
| GLLAGVGYFAFMLFRKRLGSMILA [GDAP1] | 1.99 ± 0.082 | 2.37 ± 0.41 |  |  |
| VEKIRKLPNTLLRKDKDVARLQDF [ANKRD40] | 2.93 ± 0.22 | 3.02 ± 0.28 |  |  |
| AGRNVLRWDLSPEQIKTRTEELIV [NLN] | 2.52 ± 0.34 | 3.23 ± 0.47 |  |  |
